# Experiments:
# [1] = biological target: HsFA1e^R126E in pGBKT7 (BD) (Arabidopsis thaliana) (UniProt Q9SCW5); experiment: two-hybrid; CRY1 as prey in pGADT7 (AD), HsF as bait in pGBKT7 (BD), co-transformed into yeast Y187; liquid beta-galactosidase assay with CPRG, Miller units; not detected (ND) if OD578 <0.01 after 3 h of color development
# [2] = biological target: HsFA3 E188R in pGBKT7 (BD) (Arabidopsis thaliana) (UniProt Q8GYY1); experiment: as above
# [3] = biological target: HsFA3 E188R in pGBKT7 (BD) (UniProt Q8GYY1); experiment: yeast two-hybrid (beta-galactosidase, Miller units); details: n=3; parent: est. 270; read off a plot
# Sequence of HsFA3 E188R in pGBKT7 (BD) (Q8GYY1 whole entry E188R): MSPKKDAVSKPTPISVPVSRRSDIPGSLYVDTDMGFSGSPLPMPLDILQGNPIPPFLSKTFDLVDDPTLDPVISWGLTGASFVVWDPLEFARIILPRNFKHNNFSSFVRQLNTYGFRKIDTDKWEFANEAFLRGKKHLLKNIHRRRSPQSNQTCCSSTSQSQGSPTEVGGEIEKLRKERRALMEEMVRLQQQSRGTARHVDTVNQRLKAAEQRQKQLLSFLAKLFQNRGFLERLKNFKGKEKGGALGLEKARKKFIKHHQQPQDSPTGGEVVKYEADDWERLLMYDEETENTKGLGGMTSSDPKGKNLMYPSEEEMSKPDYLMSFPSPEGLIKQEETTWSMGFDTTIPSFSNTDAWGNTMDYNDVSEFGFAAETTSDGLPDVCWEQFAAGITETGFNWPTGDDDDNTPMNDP
# Sequence of CRY1^(PHR WT) in pGADT7 (AD) (Q43125 1-508): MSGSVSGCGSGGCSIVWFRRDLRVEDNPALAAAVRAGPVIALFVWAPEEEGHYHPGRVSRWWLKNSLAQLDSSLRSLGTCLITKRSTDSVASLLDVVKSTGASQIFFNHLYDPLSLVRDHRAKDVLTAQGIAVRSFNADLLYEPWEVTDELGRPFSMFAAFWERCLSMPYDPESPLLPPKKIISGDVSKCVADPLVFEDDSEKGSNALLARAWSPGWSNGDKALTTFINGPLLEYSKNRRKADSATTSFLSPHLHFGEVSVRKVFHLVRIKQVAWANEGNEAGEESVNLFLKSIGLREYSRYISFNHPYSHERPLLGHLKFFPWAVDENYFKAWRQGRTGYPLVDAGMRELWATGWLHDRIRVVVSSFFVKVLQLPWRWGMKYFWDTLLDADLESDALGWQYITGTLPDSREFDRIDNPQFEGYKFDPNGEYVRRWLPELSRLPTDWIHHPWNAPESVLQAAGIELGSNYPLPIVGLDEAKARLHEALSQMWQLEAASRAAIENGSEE
# Sequence of HsFA1e^R126E in pGBKT7 (BD) (Arabidopsis thaliana) (Q9SCW5 whole entry, stated change not applied): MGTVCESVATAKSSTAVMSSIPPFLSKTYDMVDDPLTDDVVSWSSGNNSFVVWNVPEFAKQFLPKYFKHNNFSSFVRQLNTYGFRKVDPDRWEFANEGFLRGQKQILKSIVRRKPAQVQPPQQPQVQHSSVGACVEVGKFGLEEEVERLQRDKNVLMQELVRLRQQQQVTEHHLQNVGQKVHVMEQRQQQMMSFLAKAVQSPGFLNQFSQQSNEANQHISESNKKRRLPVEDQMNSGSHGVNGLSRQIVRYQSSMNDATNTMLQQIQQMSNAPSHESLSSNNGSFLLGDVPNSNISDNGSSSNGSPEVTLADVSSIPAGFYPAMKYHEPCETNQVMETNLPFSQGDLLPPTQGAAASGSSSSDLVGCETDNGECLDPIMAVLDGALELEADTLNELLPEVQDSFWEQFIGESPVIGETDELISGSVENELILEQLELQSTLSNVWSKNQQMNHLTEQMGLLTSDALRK
# Sequence of HsFA3 E188R in pGBKT7 (BD) (Arabidopsis thaliana) (Q8GYY1 whole entry E188R): as the sequence (Q8GYY1 whole entry E188R) above
fold increase of Y2H interaction relative to WT [1],reduction of Y2H interaction relative to WT [2],response [3],Substance
40 fold,0.33,–,CRY1^(PHR WT) in pGADT7 (AD) (from UniProt Q43125 1-508) (domain or fragment)
–,–,300 Miller Units,m1; m17 CRY1:R211E; CRY1:R435E; HsFA3:E188R
–,–,90 Miller Units,m1; m17 CRY1:R211E; HsFA3:E188R
–,–,170 Miller Units,m1; m17 CRY1:R435E; HsFA3:E188R

# From article PMC12753876
